In assay [1] the test system is endogenous B1R in HeLa cells (ERK1/2 phosphorylation). Put plainly: ERK1/2 phosphorylation (western blot) after B1R stimulation, AltB2RFlag versus Mock stable HeLa cells. The settings on record: 1 μM NG29, n = 3. Format: cell-based, human.
Another assay deals with B1R. On the set-up: method as in PMID 15734727. Conditions: cited from earlier work.
The target in assay [2] is T1, human B2R on transfected HEK293A cells (human, UniProt P30411 1-391).
T1 chain: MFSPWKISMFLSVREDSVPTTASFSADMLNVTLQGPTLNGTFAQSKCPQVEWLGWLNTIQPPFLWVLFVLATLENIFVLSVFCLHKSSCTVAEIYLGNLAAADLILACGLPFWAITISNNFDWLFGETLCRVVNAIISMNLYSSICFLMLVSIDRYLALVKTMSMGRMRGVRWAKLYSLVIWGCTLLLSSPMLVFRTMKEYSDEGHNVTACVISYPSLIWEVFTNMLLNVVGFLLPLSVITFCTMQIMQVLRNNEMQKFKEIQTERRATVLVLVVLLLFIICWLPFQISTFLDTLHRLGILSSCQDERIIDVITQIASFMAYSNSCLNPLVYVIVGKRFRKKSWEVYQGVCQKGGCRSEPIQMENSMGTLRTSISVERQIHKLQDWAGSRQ
Nature of the assay: B2R(Ø); displacement of [3H]-BK.

The target in assay [3] is T1, human B2R on transfected HEK293A cells. Put plainly: B2R; displacement of [3H]-BK. Background: Loss of bound radioactivity is the signal in a displacement assay; it reports binding, not function.

What is called IC50 is the concentration that inhibits the measured activity by half.

“Also recorded” adds a separate entry of the source. Non-standard residues stand in square brackets, D forms with d. No end group written: not given here. Hyp = O=C(O)[C@@H]1C[C@@H](O)CN1; 2Thi = N[C@@H](Cc1cccs1)C(=O)O; NChg = not defined here

On to SarLys[Dphe^8]desArg^9-BK [NG29], for which the “phosphorylated ERK1/2 after B1R stimulation, AltB2RFlag versus mock HeLa cells” value in assay [1] was “not significant; also recorded: did not observe any difference in the increased levels of phosphorylated ERK1/2 between mock and AltB2R^Flag cells”.

For the molecule “desArg^9-BK: carboxy-terminally truncated peptide metabolite (RPPGFSPF; Bradykinin; UniProt P01042 381-388, looked up, fragment)”, the kinin receptor selectivity result in the assay on B1R is recorded as “selectively bind to the other type of kinin receptor, the inducible B1R”.

With “desArg^10-KD: carboxy-terminally truncated peptide metabolite (KRPPGFSPF; Lysyl-bradykinin; UniProt P01042 380-388, looked up, fragment)”, in the assay with B1R, the kinin receptor selectivity result is recorded as “selectively bind to the other type of kinin receptor, the inducible B1R”.

For RP[Hyp]G[2Thi]SP[Tyr(4-Me)]R (also: ΨCH2NH reduced bond between residues 8 and 9) [RMP-7 ([Hyp^3,Thi^5,(4-Me)Tyr^8(ΨCH2NH)Arg^9]-BK)], the IC50 in assay [2] came out at 18 nM; in assay [3] it was 17.7 nM.

In the case of RP[Hyp]G[2Thi]S[NChg][2Thi]R (reading uncertain; also: printed as [Hyp^3,Thi^5,^NChg^7,Thi^8]-BK) [NG291 ([Hyp^3,Thi^5,^NChg^7,Thi^8]-BK)], the IC50 in assay [2] came out at 4.38 nM; in assay [3], 6.21 nM.

(Values after PMC7949122 (The Journal of Biological Chemistry, 2021).)
